Test results: patent publication EP2452948B1

Biological target: Hsp90α in MCF-7 cells (Thr90 phosphorylated, intracellular) (human)
Experiment: cell-based or functional assay

- Thr90 phosphorylated Hsp90α level in MCF-7 cells on overexpression of human PP5 (of the control): 0.55
- Thr90 phosphorylated Hsp90α level in MCF-7 cells on siRNA knock-down of human PP5 (of the control): 1.58
Substance: human PP5 in MCF-7 cells (overexpressed from pcDNA3.1/Myc-His(-), or the endogenous protein knocked down by siRNA) (enzyme)
